From patent US20090099029

B1: PRKD2(PKD2) (protein)
chain: MATAPSYPAGLPGSPGPGSPPPPGGLELQSPPPLLPQIPAPGSGVSFHIQIGLTREFVLLPAASELAHVKQLACSIVDQKFPECGFYGLYDKILLFKHDPTSANLLQLVRSSGDIQEGDLVEVVLSASATFEDFQIRPHALTVHSYRAPAFCDHCGEMLFGLVRQGLKCDGCGLNYHKRCAFSIPNNCSGARKRRLSSTSLASGHSVRLGTSESLPCTAEELSRSTTELLPRRPPSSSSSSSASSYTGRPIELDKMLLSKVKVPHTFLIHSYTRPTVCQACKKLLKGLFRQGLQCKDCKFNCHKRCATRVPNDCLGEALINGDVPMEEATDFSEADKSALMDESEDSGVIPGSHSENALHASEEEEGEGGKAQSSLGYIPLMRVVQSVRHTTRKSSTTLREGWVVHYSNKDTLRKRHYWRLDCKCITLFQNNTTNRYYKEIPLSEILTVESAQNFSLVPPGTNPHCFEIVTANATYFVGEMPGGTPGGPSGQGAEAARGWETAIRQALMPVILQDAPSAPGHAPHRQASLSISVSNSQIQENVDIATVYQIFPDEVLGSGQFGVVYGGKHRKTGRDVAVKVIDKLRFPTKQESQLRNEVAILQSLRHPGIVNLECMFETPEKVFVVMEKLHGDMLEMILSSEKGRLPERLTKFLITQILVALRHLHFKNIVHCDLKPENVLLASADPFPQVKLCDFGFARIIGEKSFRRSVVGTPAYLAPEVLLNQGYNRSLDMWSVGVIMYVSLSGTFPFNEDEDINDQIQNAAFMYPASPWSHISAGAIDLINNLLQVKMRKRYSVDKSLSHPWLQEYQTWLDLRELEGKMGERYITHESDDARWEQFAAEHPLPGSGLPTDRDLGGACPPQDHDMQGLAERISVL
B2: ROCK2 (protein)
chain: MSRPPPTGKMPGAPETAPGDGAGASRQRKLEALIRDPRSPINVESLLDGLNSLVLDLDFPALRKNKNIDNFLNRYEKIVKKIRGLQMKAEDYDVVKVIGRGAFGEVQLVRHKASQKVYAMKLLSKFEMIKRSDSAFFWEERDIMAFANSPWVVQLFYAFQDDRYLYMVMEYMPGGDLVNLMSNYDVPEKWAKFYTAEVVLALDAIHSMGLIHRDVKPDNMLLDKHGHLKLADFGTCMKMDETGMVHCDTAVGTPDYISPEVLKSQGGDGFYGRECDWWSVGVFLYEMLVGDTPFYADSLVGTYSKIMDHKNSLCFPEDAEISKHAKNLICAFLTDREVRLGRNGVEEIRQHPFFKNDQWHWDNIRETAAPVVPELSSDIDSSNFDDIEDDKGDVETFPIPKAFVGNQLPFIGFTYYRENLLLSDSPSCRETDSIQSRKNEESQEIQKKLYTLEEHLSNEMQAKEELEQKCKSVNTRLEKTAKELEEEITLRKSVESALRQLEREKALLQHKNAEYQRKADHEADKKRNLENDVNSLKDQLEDLKKRNQNSQI
B3: PRKD1(PKD) (protein)
chain: MSAPPVLRPPSPLLPVAAAAAAAAAALVPGSGPGPAPFLAPVAAPVGGISFHLQIGLSREPVLLLQDSSGDYSLAHVREMACSIVDQKFPECGFYGMYDKILLFRHDPTSENILQLVKAASDIQEGDLIEVVLSASATFEDFQIRPHALFVHSYRAPAFCDHCGEMLWGLVRQGLKCEGCGLNYHKRCAFKIPNNCSGVRRRRLSNVSLTGVSTIRTSSAELSTSAPDEPLLQKSPSESFIGREKRSNSQSYIGRPIHLDKILMSKVKVPHTFVIHSYTRPTVCQYCKKLLKGLFRQGLQCKDCRFNCHKRCAPKVPNNCLGEVTINGDLLSPGAESDVVMEEGSDDNDSERNSGLMDDMEEAMVQDAEMAMAECQNDSGEMQDPDPDHEDANRTISPSTSNNIPLMRVVQSVKHTKRKSSTVMKEGWMVHYTSKDTLRKRHYWRLDSKCITLFQNDTGSRYYKEIPLSEILSLEPVKTSALIPNGANPHCFEITTANVVYYVGENVVNPSSPSPNNSVLTSGVGADVARMWEIAIQHALMPVIPKGSSVGTGTNLHRDISVSISVSNCQIQENVDISTVYQIFPDEVLGSGQFGIVYGGKHRKTGRDVAIKIIDKLRFPTKQESQLRNEVAILQNLHHPGVVNLECMFETPERVFVVMEKLHGDMLEMILSSEKGRLPEHITKFLITQILVALRHLHFKNIVHCDLKPENVLLASADPFPQVKLCDFGFARIIGEKSFRRSVVGTPAYLAPEVLRNKGYNRSLDMWSVGVIIYVSLSGTFPFNEDEDIHDQIQNAAFMYPPNPWKEISHEAIDLINNLLQVKMRKRYSVDKTLSHPWLQDYQTWLDLRELECKIGERYITHESDDLRWEKYAGEQGLQYPTHLINPSASHSDTPETEETEMKALGERVSIL
B4: PRKCZ (protein)
chain: MPSRTGPKMEGSGGRVRLKAHYGGDIFITSVDAATTFEELCEEVRDMCRLHQQHPLTLKWVDSEGDPCTVSSQMELEEAFRLARQCRDEGLIIHVFPSTPEQPGLPCPGEDKSIYRRGARRWRKLYRANGHLFQAKRFNRRAYCGQCSERIWGLARQGYRCINCKLLVHKRCHGLVPLTCRKHMDSVMPSQEPPVDDKNEDADLPSEETDGIAYISSSRKHDSIKDDSEDLKPVIDGMDGIKISQGLGLQDFDLIRVIGRGSYAKVLLVRLKKNDQIYAMKVVKKELVHDDEDIDWVQTEKHVFEQASSNPFLVGLHSCFQTTSRLFLVIEYVNGGDLMFHMQRQRKLPEEHARFYAAEICIALNFLHERGIIYRDLKLDNVLLDADGHIKLTDYGMCKEGLGPGDTTSTFCGTPNYIAPEILRGEEYGFSVDWWALGVLMFEMMAGRSPFDIITDNPDMNTEDYLFQVILEKPIRIPRFLSVKASHVLKGFLNKDPKERLGCRPQTGFSDIKSHAFFRSIDWDLLEKKQALPPFQPQITDDYGLDNFDTQFTSEPVQLTPDDEDAIKRIDQSEFEGFEYINPLLLSTEESV
B5: PRKX (protein)
chain: MEAPGLAQAAAAESDSRKVAEETPDGAPALCPSPEALSPEPPVYSLQDFDTLATVGTGTFGRVHLVKEKTAKHFFALKVMSIPDVIRLKQEQHVHNEKSVLKEVSHPFLIRLFWTWHDERFLYMLMEYVPGGELFSYLRNRGRFSSTTGLFYSAEIICAIEYLHSKEIVYRDLKPENILLDRDGHIKLTDFGFAKKLVDRTWTLCGTPEYLAPEVIQSKGHGRAVDWWALGILIFEMLSGFPPFFDDNPFGIYQKILAGKIDFPRHLDFHVKDLIKKLLVVDRTRRLGNMKNGANDVKHHRWFRSVDWEAVPQRKLKPPIVPKIAGDGDTSNFETYPENDWDTAAPVPQKDLEIFKNF
B6: PRKCN(PKD3) (protein)
chain: MSANNSPPSAQKSVLPTAIPAVLPAASPCSSPKTGLSARLSNGSFSAPSLTNSRGSVHTVSFLLQIGLTRESVTIEAQELSLSAVKDLVCSIVYQKFPECGFFGMYDKILLFRHDMNSENILQLITSADEIHEGDLVEVVLSALATVEDFQIRPHTLYVHSYKAPTFCDYCGEMLWGLVRQGLKCEGCGLNYHKRCAFKIPNNCSGVRKRRLSNVSLPGPGLSVPRPLQPEYVALPSEESHVHQEPSKRIPSWSGRPIWMEKMVMCRVKVPHTFAVHSYTRPTICQYCKRLLKGLFRQGMQCKDCKFNCHKRCASKVPRDCLGEVTFNGEPSSLGTDTDIPMDIDNNDINSDSSRGLDDTEEPSPPEDKMFFLDPSDLDVERDEEAVKTISPSTSNNIPLMRVVQSIKHTKRKSSTMVKEGWMVHYTSRDNLRKRHYWRLDSKCLTLFQNESGSKYYKEIPLSEILRISSPRDFTNISQGSNPHCFEIITDTMVYFVGENNGDSSHNPVLAATGVGLDVAQSWEKAIRQALMPVTPQASVCTSPGQGKDHKDLSTSISVSNCQIQENVDISTVYQIFADEVLGSGQFGIVYGGKHRKTGRDVAIKVIDKMRFPTKQESQLRNEVAILQNLHHPGIVNLECMFETPERVFVVMEKLHGDMLEMILSSEKSRLPERITKFMVTQILVALRNLHFKNIVHCDLKPENVLLASAEPFPQVKLCDFGFARIIGEKSFRRSVVGTPAYLAPEVLRSKGYNRSLDMWSVGVIIYVSLSGTFPFNEDEDINDQIQNAAFMYPPNPWREISGEAIDLINNLLQVKMRKRYSVDKSLSHPWLQDYQTWLDLREFETRIGERYITHESDDARWEIHAYTHNLVYPKHFIMAPNPDDMEEDP
B7: EPHB3 (protein)
chain: CLRKQRHGSDSEYTEKLQQYIAPGMKVYIDPFTYEDPNEAVREFAKEIDVSCVKIEEVIGAGEFGEVCRGRLKQPGRREVFVAIKTLKVGYTERQRRDFLSEASIMGQFDHPNIIRLEGVVTKSRPVMILTEFMENCALDSFLRLNDGQFTVIQLVGMLRGIAAGMKYLSEMNYVHRDLAARNILVNSNLVCKVSDFGLSRFLEDDPSDPTYTSSLGGKIPIRWTAPEAIAYRKFTSASDVWSYGIVMWEVMSYGERPYWDMSNQDVINAVEQDYRLPPPMDCPTALHQLMLDCWVRDRNLRPKFSQIVNTLDKLIRNAASLKVIASAQSGMSQPLLDRTVPDYTTFTTVGDWLDAIKMGRYKESFVSAGFASFDLVAQMTAEDLLRIGVTLAGHQKKILSSIQDMRLQMNQTLPVQV
B8: ROCK1 (protein)
chain: MSTGDSFETRFEKMDNLLRDPKSEVNSDCLLDGLDALVYDLDFPALRKNKNIDNFLSRYKDTINKIRDLRMKAEDYEVVKVIGRGAFGEVQLVRHKSTRKVYAMKLLSKFEMIKRSDSAFFWEERDIMAFANSPWVVQLFYAFQDDRYLYMVMEYMPGGDLVNLMSNYDVPEKWARFYTAEVVLALDAIHSMGFIHRDVKPDNMLLDKSGHLKLADFGTCMKMNKEGMVRCDTAVGTPDYISPEVLKSQGGDGYYGRECDWWSVGVFLYEMLVGDTPFYADSLVGTYSKIMNHKNSLTFPDDNDISKEAKNLICAFLTDREVRLGRNGVEEIKRHLFFKNDQWAWETLRDTVAPVVPDLSSDIDTSNFDDLEEDKGEEETFPIPKAFVGNQLPFVGFTYYSNRRYLSSANPNDNRTSSNADKSLQESLQKTIYKLEEQLHNEMQLKDEMEQKCRTSNIKLDKIMKELDEEGNQRRNLESTVSQIEKEKMLLQHRINEYQRKAEQENEKRRNVENEVSTLKDQLEDLKKVSQNSQL
B9: PRKCQ (protein)
chain: MSPFLRIGLSNFDCGSCQSCQGEAVNPYCAVLVKEYVESENGQMYIQKKPTMYPPWDSTFDAHINKGRVMQIIVKGKNVDLISETTVELYSLAERCRKNNGKTEIWLELKPQGRMLMNARYFLEMSDTKDMNEFETEGFFALHQRRGAIKQAKVHHVKCHEFTATFFPQPTFCSVCHEFVWGLNKQGYQCRQCNAAIHKKCIDKVIAKCTGSAINSRETMFHKERFKIDMPHRFKVYNYKSPTFCEHCGTLLWGLARQGLKCDACGMNVHHRCQTKVANLCGINQKLMAEALAMIESTQQARCLRDTEQIFREGPVEIGLPCSIKNEARPPCLPTPGKREPQGISWESPLDEVDKMCHLPEPELNKERPSLQIKLKIEDFILHKMLGKGSFGKVFLAEFKKTNQFFAIKALKKDVVLMDDDVECTMVEKRVLSLAWEHPFLTHMFCTFQTKENLFFVMEYLNGGDLMYHIQSCHKFDLSRATFYAAEIILGLQFLHSKGIVYRDLKLDNILLDKDGHIKIADFGMCKENMLGDAKTNTFCGTPDYIAPEILLGQKYNHSVDWWSFGVLLYEMLIGQSPFHGQDEEELFHSIRMDNPFYPRWLEKEAKDLLVKLFVREPEKRLGVRGDIRQHPLFREINWEELERKEIDPPFRPKVKSPFDCSNFDKEFLNEKPRLSFADRALINSMDQNMFRNFSFMNPGMERLIS

Molecular target: T1, Bovine, dephosphorylated, Myelin Basic Protein (MBP), P02687
T1 chain: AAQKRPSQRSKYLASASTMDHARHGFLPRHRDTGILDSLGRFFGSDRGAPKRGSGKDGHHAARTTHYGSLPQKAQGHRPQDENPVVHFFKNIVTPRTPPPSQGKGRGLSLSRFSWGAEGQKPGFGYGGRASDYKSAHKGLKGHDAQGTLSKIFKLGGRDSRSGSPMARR

Protein | MBP Kinase Activity
B1 | Strong
B2 | Strong
B3 | Weak
B4 | Strong
B5 | Negative
B6 | Weak
B7 | Strong
B8 | Strong
B9 | Strong
